Measurements: the RNAGym collection of RNA variant scans (doi:10.7554/elife.80360)

B1: CPEB3 Ribozyme (parent)
chain: GGGGGCCACAGCAGAAGCGUUCACGUCGCGGCCCCUGUCAGAUUCUGGUGAAUCUGCGAAUUCUGCUGU

Variants of: B1
Experiment: self-cleavage, relative activity (ratio to wild type); higher = more cleavage; co-transcriptional

First: GUGGGCCACAGCAGAUGCGUUCACGUCGCGGCCCCUGUCAGAUUCUGGUGAAUCUGCGAAUUCUGCUGU
Second: GCGGGCCACAGCAGAAGCGUUCACGUCGCGGCCCCUGUCAGAUUCUGGUGAAUCUGCGAAUUCUGCGGU
The self-cleavage of the first is lower: 0.0525 for the first, 0.0872 for the second.

Compared with GUGGGCCACAGCAGAAGCGUUCACGUCGCGGCCCCUGUGAGAUUCUGGUGAAUCUGCGAAUUCUGCUGU, GUGGGCCACAGCAGAAGCGUUCACGUCGCGGCCCCUGUAAGAUUCUGGUGAAUCUGCGAAUUCUGCUGU is higher in self-cleavage: 0.045 for the first, 0.0535 for the second.

First: GUGGGCCACAGCAGAAGCGUUCACGUCGCGGCCCCUGUUAGAUUCUGGUGAAUCUGCGAAUUCUGCUGU
Second: GUAGGCCACAGCAGAAGCGUUCACGUCGCGGCCCCUGUCAGAUUCUGGUGAAUCUGCGAAUUCUGCUGU
The self-cleavage of the first is higher: 0.0814 for the first, 0.0298 for the second.

First: GUCGGCCACAGCAGAAGCGUUCACGUCGCGGCCCCUGUCAGAUUCUGGUGAAUCUGCGAAUUCUGCUGU
Second: GUGGGCCACAACAGAAGCGUUCACGUCGCGGCCCCUGUCAGAUUCUGGUGAAUCUGCGAAUUCUGCUGU
The self-cleavage of the first is higher: 0.0704 for the first, 0.049 for the second.

First: GUGGGCCACAUCAGAAGCGUUCACGUCGCGGCCCCUGUCAGAUUCUGGUGAAUCUGCGAAUUCUGCUGU
Second: GUGGGCCACAGCAGAAGCGUUCACGUCGCGGCCCCUGUCAGAUUCUGGUGAAUGUGCGAAUUCUGCUGU
The self-cleavage of the first is higher: 0.0835 for the first, 0.0751 for the second.

Compared with GUGGGCCACAGCAGAAGCGUUCACGUCGCGGCCCCUGUCAGAUUCUGGUGAAUUUGCGAAUUCUGCUGU, GUGGGCCACAGCAGAAGCGUUCACGUCGCGGCCCCUGUCAGAUUCUGGUGGAUCUGCGAAUUCUGCUGU is higher in self-cleavage: 0.0892 for the first, 0.127 for the second.

First: GUGGGCCACAGCAGAAGCGUUCACGUCGCGGCCCCUGUCAGAUUCUGGUGUAUCUGCGAAUUCUGCUGU
Second: GUGGGCCACAGCAGAAGCGUUCACGUCGCGGCUCCUGUCAGAUUCUGGUGAAUCUGCGAAUUCUGCUGU
The self-cleavage of the first is lower: 0.0841 for the first, 0.117 for the second.

Compared with GUGGGCCACAGCAGAAGCGUUCACGUCGCGGCACCUGUCAGAUUCUGGUGAAUCUGCGAAUUCUGCUGU, GUGGGCCACAGCAGAAGCGUUCACGUCGCGGCGCCUGUCAGAUUCUGGUGAAUCUGCGAAUUCUGCUGU is lower in self-cleavage: 0.0922 for the first, 0.066 for the second.

Going from GUGGGCCACAGCAGAAGCGUUCACGUCGCGGGCCCUGUCAGAUUCUGGUGAAUCUGCGAAUUCUGCUGU to GUGGGCCACAGCAGAAGCGUUCACGUCGCGGUCCCUGUCAGAUUCUGGUGAAUCUGCGAAUUCUGCUGU, the self-cleavage rises from 0.0483 to 0.113.

Compared with GUGGGCCACAGCAUAAGCGUUCACGUCGCGGCCCCUGUCAGAUUCUGGUGAAUCUGCGAAUUCUGCUGU, GUGGGCCACAGCACAAGCGUUCACGUCGCGGCCCCUGUCAGAUUCUGGUGAAUCUGCGAAUUCUGCUGU is lower in self-cleavage: 0.0888 for the first, 0.0522 for the second.

Compared with GUGGGCUACAGCAGAAGCGUUCACGUCGCGGCCCCUGUCAGAUUCUGGUGAAUCUGCGAAUUCUGCUGU, GUGGGCGACAGCAGAAGCGUUCACGUCGCGGCCCCUGUCAGAUUCUGGUGAAUCUGCGAAUUCUGCUGU is lower in self-cleavage: 0.0578 for the first, 0.0573 for the second.

Compared with GUGGGCAACAGCAGAAGCGUUCACGUCGCGGCCCCUGUCAGAUUCUGGUGAAUCUGCGAAUUCUGCUGU, GUGGGCCACAGCAGAAGCGUUCACGUCGCGGCCCCUGUCCGAUUCUGGUGAAUCUGCGAAUUCUGCUGU is higher in self-cleavage: 0.0706 for the first, 0.087 for the second.

Compared with GUGGGCCACAGCAGAAGCGUUCACGUCGCGGCCCCUGUCUGAUUCUGGUGAAUCUGCGAAUUCUGCUGU, GUGCGCCACAGCAGAAGCGUUCACGUCGCGGCCCCUGUCAGAUUCUGGUGAAUCUGCGAAUUCUGCUGU is lower in self-cleavage: 0.0492 for the first, 0.0426 for the second.

Compared with GUGUGCCACAGCAGAAGCGUUCACGUCGCGGCCCCUGUCAGAUUCUGGUGAAUCUGCGAAUUCUGCUGU, GUGGGCCACCGCAGAAGCGUUCACGUCGCGGCCCCUGUCAGAUUCUGGUGAAUCUGCGAAUUCUGCUGU is higher in self-cleavage: 0.0539 for the first, 0.0945 for the second.

GUGGGCCACAGCAGAAGCGUUGACGUCGCGGCCCCUGUCAGAUUCUGGUGAAUCUGCGAAUUCUGCUGU and GUGGGCCACAGCAGAAGCGUUUACGUCGCGGCCCCUGUCAGAUUCUGGUGAAUCUGCGAAUUCUGCUGU are the same in self-cleavage: 0.039 for the first, 0.039 for the second.

First: GUGGGCCACAGCAGAAGCGUUAACGUCGCGGCCCCUGUCAGAUUCUGGUGAAUCUGCGAAUUCUGCUGU
Second: GUGGGCCACAGCAGAAGCGUUCACGUCGCGGCCGCUGUCAGAUUCUGGUGAAUCUGCGAAUUCUGCUGU
The self-cleavage of the first is lower: 0.0323 for the first, 0.0441 for the second.

First: GUGGGCCACAGCAGAAGCGUUCACGUCGCGGCCACUGUCAGAUUCUGGUGAAUCUGCGAAUUCUGCUGU
Second: GUGGGCCACAGCAGAAGCGUUCACGUCGCGGCCCAUGUCAGAUUCUGGUGAAUCUGCGAAUUCUGCUGU
The self-cleavage of the first is lower: 0.0756 for the first, 0.256 for the second.

First: GUGGGCCACAGCAGAAGCGUUCACGUCGCGGCCCCUGUCAGAUUAUGGUGAAUCUGCGAAUUCUGCUGU
Second: GUGGGCCACAGCAGAAGCGUUCACGUCGCGGCCCCUGUCAGAUUGUGGUGAAUCUGCGAAUUCUGCUGU
The self-cleavage of the first is higher: 0.0935 for the first, 0.0316 for the second.

First: GUGGGCCACAGCAGAAGCGUUCACGUCGCGGCCCCUGUCAGAUUUUGGUGAAUCUGCGAAUUCUGCUGU
Second: GUGGGCCAGAGCAGAAGCGUUCACGUCGCGGCCCCUGUCAGAUUCUGGUGAAUCUGCGAAUUCUGCUGU
The self-cleavage of the first is lower: 0.102 for the first, 0.129 for the second.

In the case of GUGGGCCAAAGCAGAAGCGUUCACGUCGCGGCCCCUGUCAGAUUCUGGUGAAUCUGCGAAUUCUGCUGU, the self-cleavage is reported as 0.149.
